Source: patent US20090299044A1 (priority 2006, published 2009)
Entries after “also recorded” stand apart in the source; their conditions may differ. Bridge positions count the residues as written; N and C are the ends. Peptide text beside a SMILES is read from it.

Assays:
human Kv1.3 channel = human Kv1.3 channel (Homo sapiens, UniProt P22001); test: cell-based or functional assay
[1] = system: IL-2 production, human whole blood; type: cell-based
[2] = system: IFN-g production, human whole blood; type: cell-based; details: read-out: Analogue Activity (IC50, pM) WB/IFNg
[3] = molecular target: human Kv1.3 voltage-gated potassium channel (human) (UniProt P22001); test: cell-based or functional assay
human Kv1.1 = human Kv1.1 (Homo sapiens, UniProt Q09470); test: cell-based; parameters: expressed in transfected cells; host or cells: HEK293; details: IC50 on HEK/Kv1.1
human Kv1.1, sequence (Q09470 whole entry): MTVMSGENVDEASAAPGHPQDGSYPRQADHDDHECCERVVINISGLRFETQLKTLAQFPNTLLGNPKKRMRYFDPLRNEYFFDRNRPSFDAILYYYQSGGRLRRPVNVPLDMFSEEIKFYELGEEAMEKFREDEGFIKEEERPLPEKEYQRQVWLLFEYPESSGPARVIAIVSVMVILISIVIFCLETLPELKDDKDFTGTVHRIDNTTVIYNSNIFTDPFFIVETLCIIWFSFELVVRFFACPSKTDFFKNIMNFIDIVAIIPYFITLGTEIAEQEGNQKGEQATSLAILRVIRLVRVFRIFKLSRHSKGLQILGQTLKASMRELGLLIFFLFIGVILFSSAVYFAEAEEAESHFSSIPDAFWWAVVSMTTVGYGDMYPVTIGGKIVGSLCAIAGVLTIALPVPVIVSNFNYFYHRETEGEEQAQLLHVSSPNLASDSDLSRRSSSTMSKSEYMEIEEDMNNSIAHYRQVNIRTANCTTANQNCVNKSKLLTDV

human Kv1.3 channel, sequence (P22001 whole entry): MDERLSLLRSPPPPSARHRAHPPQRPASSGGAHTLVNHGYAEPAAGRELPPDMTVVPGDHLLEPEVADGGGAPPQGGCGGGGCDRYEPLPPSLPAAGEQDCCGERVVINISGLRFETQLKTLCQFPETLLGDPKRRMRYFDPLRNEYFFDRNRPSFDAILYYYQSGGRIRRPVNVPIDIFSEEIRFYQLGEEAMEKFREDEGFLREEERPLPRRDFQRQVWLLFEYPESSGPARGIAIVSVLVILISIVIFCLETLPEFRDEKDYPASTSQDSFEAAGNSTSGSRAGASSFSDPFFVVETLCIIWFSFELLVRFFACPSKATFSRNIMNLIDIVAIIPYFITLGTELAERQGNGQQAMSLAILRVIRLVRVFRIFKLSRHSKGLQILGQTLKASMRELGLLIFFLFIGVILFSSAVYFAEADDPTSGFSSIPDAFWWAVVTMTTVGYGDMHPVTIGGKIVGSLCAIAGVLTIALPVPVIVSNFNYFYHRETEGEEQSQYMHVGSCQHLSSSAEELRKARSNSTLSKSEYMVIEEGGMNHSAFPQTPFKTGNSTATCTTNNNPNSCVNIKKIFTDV
human Kv1.3 voltage-gated potassium channel (human), sequence (P22001 whole entry): as above

How did the Kv1.3 IC50 by WCVC (whole cell patch clamp, HEK293/Kv1.3 cells) (human Kv1.3 channel) turn out when “E. coli-derived Fc-L-ShK[1-35] (Fc fusion)” was run?
Its Kv1.3 IC50 by WCVC (whole cell patch clamp, HEK293/Kv1.3 cells) is 1.4 nM.

For CC[C@H](C)[C@@H]1NC(=O)[C@H](CCCCN)NC(=O)[C@@H](NC(=O)[C@H](CCCCN)NC(=O)[C@@H](NC(=O)[C@H](CC(N)=O)NC(=O)[C@@H](NC(=O)[C@@H](NC(=O)[C@@H](NC(=O)CN)C(C)C)[C@@H](C)CC)[C@@H](C)CC)C(C)C)CSSC[C@@H]2NC(=O)[C@H](CCCCN)NC(=O)CNC(=O)[C@H](Cc3ccccc3)NC(=O)[C@H](CCCNC(=N)N)NC(=O)[C@H](CCSC)NC(=O)CNC(=O)[C@H](C)NC(=O)[C@H](CCCCN)NC(=O)[C@H](CCCCN)NC(=O)[C@@H]3CSSC[C@@H](C(=O)N[C@H](C(=O)N4CCC[C@H]4C(=O)N[C@@H](CCCCN)C(=O)O)[C@@H](C)O)NC(=O)[C@H](Cc4c[nH]cn4)NC(=O)[C@H](CSSC[C@H](NC(=O)[C@H](CCC(N)=O)NC(=O)[C@H](CCCNC(=N)N)NC(=O)[C@H](CCC(=O)O)NC1=O)C(=O)N[C@@H](CC(C)C)C(=O)N[C@@H](CCC(=O)O)C(=O)N1CCC[C@H]1C(=O)N3)NC(=O)[C@H](CCCCN)NC(=O)CNC(=O)[C@H](CC(N)=O)NC(=O)[C@H](CCSC)NC2=O [S11E] (H-GVIINVKCKIERQCLEPCKKAGMRFGKCMNGKCHCTPK-OH; disulfide 8-28, 14-33, 18-35), which IC50 ([1]; read-out: Analogue Activity (IC50, pM) WB/IL-2) is on record?
Its IC50 is 39900 pM.

And the IC50 [2]?
The IC50 was 16900 pM.

What does the source list for OSK1 analogue E16K, K20D (peptide)?
WB/IFNg (IC50, nM), human whole blood [3]: 1.32 nM; WB/IL-2 (IC50, nM), human whole blood [3]: 1.58 nM

How did the Kv1.3 IC50 by IWQ (IonWorks planar patch clamp, CHO/Kv1.3 cells) (human Kv1.3 channel) turn out when “E. coli-derived Shk[1-35]-L-Fc (Fc fusion)” was run?
The Kv1.3 IC50 by IWQ (IonWorks planar patch clamp, CHO/Kv1.3 cells) was 2.4 nM.

Which Kv1.3 IC50 by WCVC (whole cell patch clamp, HEK293/Kv1.3 cells) (human Kv1.3 channel) does the source give for E. coli-derived Fc-L-OSK1 (Fc fusion) here?
The Kv1.3 IC50 by WCVC (whole cell patch clamp, HEK293/Kv1.3 cells) was 3.2 nM.

With CC[C@H](C)[C@@H]1NC(=O)[C@H](CCCCN)NC(=O)[C@@H](NC(=O)[C@H](CCCCN)NC(=O)[C@@H](NC(=O)[C@H](CC(N)=O)NC(=O)[C@@H](NC(=O)[C@@H](NC(=O)[C@@H](NC(=O)CN)C(C)C)[C@@H](C)CC)[C@@H](C)CC)C(C)C)CSSC[C@@H]2NC(=O)[C@H](CCCCN)NC(=O)CNC(=O)[C@H](Cc3ccccc3)NC(=O)[C@H](CCCNC(=N)N)NC(=O)[C@H](CCSC)NC(=O)CNC(=O)[C@H](C)NC(=O)[C@H](CCCCN)NC(=O)[C@H](CCCCN)NC(=O)[C@@H]3CSSC[C@@H](C(=O)N[C@H](C(=O)N4CCC[C@H]4C(=O)N[C@@H](CCCCN)C(=O)O)[C@@H](C)O)NC(=O)[C@H](Cc4c[nH]cn4)NC(=O)[C@H](CSSC[C@H](NC(=O)[C@H](CCC(N)=O)NC(=O)[C@H](CCCNC(=N)N)NC(=O)[C@H](CO)NC1=O)C(=O)N[C@@H](CC(C)C)C(=O)N[C@@H](CCC(=O)O)C(=O)N1CCC[C@H]1C(=O)N3)NC(=O)[C@H](CCCCN)NC(=O)CNC(=O)[C@H](CC(N)=O)NC(=O)[C@H](C)NC2=O [OSK1[Ala-29]] (H-GVIINVKCKISRQCLEPCKKAGMRFGKCANGKCHCTPK-OH; disulfide 8-28, 14-33, 18-35) as the molecule, how does the “potency relative to cyclosporin A in blocking the cytokine response in human whole blood (in words)” value [1] read?
Its value is “several orders of magnitude more potent”.

And the IC50 (human Kv1.1)?
Its IC50 is 2.7 nM.

What does the source list for “E. coli-derived Fc-L-ShK[2-35] (Fc fusion)”?
Kv1.3 IC50 by IWQ (IonWorks planar patch clamp, CHO/Kv1.3 cells) (human Kv1.3 channel): 2.8 nM; Kv1.3 IC50 by WCVC (whole cell patch clamp, HEK293/Kv1.3 cells) (human Kv1.3 channel): 1.3 nM

“E. coli-derived ShK[2-35]-L-Fc (Fc fusion)” was tested. Which Kv1.3 IC50 by IWQ (IonWorks planar patch clamp, CHO/Kv1.3 cells) (human Kv1.3 channel) did it give?
The Kv1.3 IC50 by IWQ (IonWorks planar patch clamp, CHO/Kv1.3 cells) was 4.9 nM.

With “Fc-L25-ShK[2-35] (CHO-derived) (Fc fusion)” as the molecule, how does the IC50 of current block, whole cell patch clamp on HEK293/Kv1.3 cells (human Kv1.3 channel) read?
The IC50 of current block, whole cell patch clamp on HEK293/Kv1.3 cells was 0.15 nM.

B1: PEGylated CH2-OSK1: CH2-OSK1 fusion protein mono-PEGylated with 20 kD methoxy-PEG-aldehyde (conjugate)
chain: MGGHHHHHHGGGPSVFLFPPKPKDTLMISRTPEVTCVVVDVSHEDPEVKFNWYVDGVEVHNAKTKPREEQYNSTYRVVSVLTVLHQDWLNGKEYKCKVSNKALPAPIEKTISGGGGSGGGGSGVIINVKCKISRQCLEPCKKAGMRFGKCMNGKCHCTPK
How did the “blockade of the whole blood cytokine response (IL-2 and IFNg), in words” value [1] turn out when B1 was run?
Its value is “active in blocking inflammation; also recorded: modest blockade”.
